We go through two substances from US20220332800A1.

The target in test [1] is ZIKV-VLP (Native Antigen Inc.) (Zika virus). Nature of the test: indirect ELISA, purified antibody serially diluted from 10 µg/ml. On the technique in general: ELISA stands for enzyme-linked immunosorbent assay.
The target in test [2] is purified inactivated Zika virus (PIZV) (Zika virus). The test is described as above.
Test [3] addresses ZIKV-VLP (Native Antigen Inc.) (Zika virus). Nature of the test: BLI binning on ZIKV-VLP; 1st mAb: 4G2.
Test [4] has the same target. Nature of the test: BLI binning on ZIKV-VLP; 1st mAb: Ab1.
The target is the same in test [5]. Nature of the test: BLI binning on ZIKV-VLP; 1st mAb: Ab2.
For test [6] the target is unchanged. Nature of the test: BLI binning on ZIKV-VLP; 1st mAb: C10.
Test [7] shares this target. Nature of the test: BLI binning on ZIKV-VLP; 1st mAb: 11-3.
The target is the same in test [8]. Nature of the test: BLI binning on ZIKV-VLP; 1st mAb: 78-2.
For test [9] the target is unchanged. Nature of the test: BLI binning on ZIKV-VLP; 1st mAb: 102-1.
Test [10] has the same target. Nature of the test: BLI binning on ZIKV-VLP; 1st mAb: 181-4.
Test [11] shares this target. Nature of the test: BLI binning on ZIKV-VLP; 1st mAb: 242-3.
Test [12] shares this target. Nature of the test: BLI binning on ZIKV-VLP; 1st mAb: 260-2.
For test [13] the target is unchanged. Briefly: BLI binning on ZIKV-VLP; 1st mAb: 289-3.
For test [14] the target is unchanged. Nature of the test: BLI binning on ZIKV-VLP; 1st mAb: 306-2.
Test [15] has the same target. Briefly: BLI binning on ZIKV-VLP; 1st mAb: 329-2.
The target is the same in test [16]. Briefly: BLI binning on ZIKV-VLP; 1st mAb: 270-12.
In test [17] the target is Zika PRVABC59 live virus (Zika virus). Briefly: cell-based or functional assay.
The target of test [18] is ZIKV-VLP (Native Antigen Inc.) (Zika virus). Briefly: BLI binning on ZIKV-VLP; 1st mAb (row): C10.
For test [19] the target is unchanged. Nature of the test: BLI binning on ZIKV-VLP; 1st mAb (row): 102-1.
The target is the same in test [20]. Nature of the test: BLI binning on ZIKV-VLP; 1st mAb (row): 242-3.
For test [21] the target is unchanged. Nature of the test: BLI binning on ZIKV-VLP; 1st mAb (row): 289-3.
Test [22] has the same target. Nature of the test: BLI binning on ZIKV-VLP; 1st mAb (row): 306-2.
Test [23] has the same target. Nature of the test: BLI binning on ZIKV-VLP; 1st mAb (row): 270-12.

By EC50 is commonly meant the concentration at which the effect is half-maximal. Read a high EC50 as weaker potency.

With “4G2 (commercially-available anti-dengue antibody)”, the EC50 (half-maximal binding concentration) in test [1] worked out at 0.33 µg/mL. The substance further showed an EC50 in test [2] of 0.0182 µg/mL. In addition, the response of 2nd mAb was 0.62 in test [3]; 0.52 in test [4]; -0.08 in test [5]; 0.54 in test [6]; 0.52 in [7]; 0.17 in [8]. Moreover, the response of 2nd mAb in [9] turned out to be 0.46; in test [10], 0.5; in test [11], 0.52; in [12], 0.54; in [13] it was 0.51; in [14], 0.43. The response of 2nd mAb in test [15] is 0.51; in test [16], 0.43.
Consider “C10 (commercially-available anti-dengue antibody)”, for which, in test [17], the MNT IC50 (ng/mL) of Purified antibody is 306 ng/mL. In addition, the response of 2nd mAb in test [18] was -0.0123; in test [19] it was -0.0138; in test [20] it was -0.0078; in test [21], -0.0388; in [22], 0.0209; in [23], -0.0081. In addition, the response of 2nd mAb in test [3] was 0.24; in test [4], 0.66; in test [5], 0.05; in test [6], 0.17; in test [7], 0.63; in [8], 0.56. In addition, the response of 2nd mAb in test [9] is 0.68; in test [10], 0.55; in test [11], 0.59; in test [12] it was 0.61; in [13] it was 0.63; in test [14] it was 0.62. The response of 2nd mAb in test [15] stood at 0.57; in [16] it was 0.58. Further, the results for the EC50 (half-maximal binding concentration) in test [1] and in [2] were 0.162 µg/mL and 0.0268 µg/mL, respectively.
